Substitutions are numbered along the chain they refer to.
Columns and labels:
Assay in all cases: ITC; ITC: 20 mM HEPES-Na pH 7.5, 200 mM NaCl, 20 mM KCl, 25 C, 20 uM DNA in cell, protein in syringe, one set of sites; EMSA: same buffer plus 50 ug/ml herring sperm DNA, 50 nM DNA, RT 15 min, 6% native PAGE 0.5x TBE
Conditions in all cases: protein: recombinant; tags: C-terminal His6; blunt
MrpR G136E = biological target: T1, MrpR G136E (Bacillus subtilis prophage SPβ c2, UniProt O34558 1-325, G136E)
T1 sequence: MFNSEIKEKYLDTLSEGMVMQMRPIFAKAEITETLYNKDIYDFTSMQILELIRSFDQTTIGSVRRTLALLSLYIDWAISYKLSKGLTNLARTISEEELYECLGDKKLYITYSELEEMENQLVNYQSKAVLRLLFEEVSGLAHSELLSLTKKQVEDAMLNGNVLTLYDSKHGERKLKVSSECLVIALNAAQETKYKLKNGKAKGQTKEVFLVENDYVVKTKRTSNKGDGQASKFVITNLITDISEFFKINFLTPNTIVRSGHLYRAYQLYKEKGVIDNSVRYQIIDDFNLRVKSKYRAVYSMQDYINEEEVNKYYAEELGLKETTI

MrpR K169A = biological target: T2, MrpR K169A (Bacillus subtilis prophage SPβ, UniProt O34558 1-325, K169A)
T2 sequence: T1 sequence with E136G, K169A

MrpR Y304F = biological target: T3, MrpR Y304F (Bacillus subtilis prophage SPβ, UniProt O34558 1-325, Y304F)
T3 sequence: T1 sequence with E136G, Y304F

B1: aimR promoter ITC duplex (LC292/LC293) (dsDNA)
DNA 1: GAATTTTAAAGAGATTACAAATACAAAAAATATGTATAAAATAATTGACTCGTAATG
DNA 2: CATTACGAGTCAATTATTTTATACATATTTTTTGTATTTGTAATCTCTTTAAAATTC
Kd (MrpR G136E): 1690 ± 690 nM
Kd (MrpR K169A): 346 ± 150 nM
Kd (MrpR Y304F): 1340 ± 500 nM
